# In US20260373285 (published 2026):
# T1: human Trop-2 (His) (human, UniProt P09758)
# T1 chain: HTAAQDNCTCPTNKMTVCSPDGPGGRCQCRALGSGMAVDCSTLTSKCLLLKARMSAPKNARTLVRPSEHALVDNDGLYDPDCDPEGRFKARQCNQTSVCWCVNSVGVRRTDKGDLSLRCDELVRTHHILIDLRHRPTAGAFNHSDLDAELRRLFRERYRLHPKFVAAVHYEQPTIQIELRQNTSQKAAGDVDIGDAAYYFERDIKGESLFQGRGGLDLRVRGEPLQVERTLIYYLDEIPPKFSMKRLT
# Molecular target: T1, human Trop-2 (His)
# Test: SPR
row,Binder,Kd [nM]
1,"Trop-2-YC-82hz-4 (antibody, V domains shown) VH: EVQVVESGGGLVQPGGSLRLSCAASGYIFSNSGMGWYRQAPGQGLELVAAISSGGTTHYADSVKGRFTISRDNSKNTLYLQMNSLRAEDTAVYYCNGDRYYSGTDVFGSWGQGTLVTVSS",75.1
2,"Trop-2-YC-82hz-5 (antibody, V domains shown) VH: EVQVVESGGGLVQPGGSLRLSCAASGYIFSNSGMGWYRQAPGQGLELVAAISSGGTTHYAQSVKGRFTISRDNSKNTLYLQMNSLRAEDTAVYYCNGDRYYSGTDVFGSWGQGTLVTVSS",76.5
3,"Trop-2-YC-82hz-2 (antibody, V domains shown) VH: EVQVVESGGGLVQPGGSLRLSCATSGYIFSNSGMGWYRQAPGKQRELVAAISSGGTTHYADSVKGRFTISRDNSKNTVYLQMNSLRAEDTAVYYCNGDRYYSGTDVFGSWGQGTLVTVSS",23.8
4,"Trop-2-YC-82hz-1 (antibody, V domains shown) VH: EVQVVESGGGLVQPGGSLRLSCATSGYIFSNSGMGWYRQAPGKGLELVAAISSGGTTHYADSVKGRFTISRDNSKNTVYLQMNSLRAEDTAVYYCNGDRYYSGTDVFGSWGQGTLVTVSS",38.1
5,"Trop-2-YC-82hz-3 (antibody, V domains shown) VH: EVQVVESGGGLVQPGGSLRLSCAASGYIFSNSGMGWYRQAPGKGLELVAAISSGGTTHYAQSVKGRFTISRDNSKNTVYLQMNSLRPEDTAVYYCNGDRYYSGTDVFGSWGQGTLVTVSS",48.2

# Molecular target: hPD-L1(ECD)-His (human, UniProt Q9NZQ7)
# Sequence (Q9NZQ7 19-238): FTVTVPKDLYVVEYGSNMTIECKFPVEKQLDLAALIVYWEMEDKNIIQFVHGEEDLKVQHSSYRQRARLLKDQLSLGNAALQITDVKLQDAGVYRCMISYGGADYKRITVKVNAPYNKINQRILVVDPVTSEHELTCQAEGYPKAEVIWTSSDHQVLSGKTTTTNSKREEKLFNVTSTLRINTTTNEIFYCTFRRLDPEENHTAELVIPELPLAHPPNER
# Test: SPR supernatant
row,Binder,Kd [nM]
1,"PD-L1-1.168.15-z1-uIgG1K (antibody, V domains shown) VH: EVQLVQSGAEVKKPGATVKISCKVSGFNIEDTYIYWVQQAPGKGLEWMGWIDPANYNTKYDPRFQDRVTITADTSTDTAYMELSSLRSEDTAVYYCARGLRLLMDYWGQGTTVTVSS VL: DIQLTQSPSFLSASVGDRVTITCKASQNVHTSLAWYQQKPGKSPKLLIYLASNRHTGVPSRFSGSGSGTEFTLTISSLQPEDFATYYCLQHWNYPLTFGQGTKLEIKR",1.09
2,"PD-L1-1.168.15-z202-uIgG1K (antibody, V domains shown) VH: EVQLQQSGAELVKPGASVKLSCTVSGFNIEDTYIYWVKQRPEQGLEWIGWIDPANYNTKYDPRFQDKATVTVDTSSNTAYMHLSSLTSEDTAVYYCARGLRLLMDYWGQGTSVTVSS VL: DIQMTQSPSFLSASVGDRVTITCKASQNVHTSLAWYQQKPGKSPKALIYLASNRHTGVPSRFSGSGSGTEFTLTISSLQPEDFATYFCLQHWNYPLTFGQGTKLEIKR",0.501
3,"PD-L1-1.168.15-z0-uIgG1K (antibody, V domains shown) VH: EVQLVQSGAEVKKPGATVKISCKVSGFNIEDTYIYWVQQAPGKGLEWMGWIDPANYNTKYDPRFQDRVTITADTSTDTAYMELSSLRSEDTAVYYCARGLRLLMDYWGQGTTVTVSS VL: DIQLTQSPSFLSASVGDRVTITCKASQNVHTSLAWYQQKPGKAPKLLIYLASNRHTGVPSRFSGSGSGTEFTLTISSLQPEDFATYYCLQHWNYPLTFGQGTKLEIKR",1.29
4,"PD-L1-1.168.15-z18-uIgG1K (antibody, V domains shown) VH: EVQLVQSGAEVKKPGATVKLSCKVSGFNIEDTYIYWVQQAPGKGLEWIGWIDPANYNTKYDPRFQDRVTVTVDTSTNTAYMELSSLRSEDTAVYYCARGLRLLMDYWGQGTTVTVSS VL: DIQMTQSPSFLSASVGDRVTITCKASQNVHTSLAWYQQKPGKSPKALIYLASNRHTGVPSRFSGSGSGTEFTLTISSLQPEDFATYFCLQHWNYPLTFGQGTKLEIKR",1.86
5,"PD-L1-1.168.15-z201-uIgG1K (antibody, V domains shown) VH: EVQLVQSGAEVKKPGATVKLSCKVSGFNIEDTYIYWVQQAPGKGLEWIGWIDPANYNTKYDPRFQDRVTVTVDTSTNTAYMELSSLRSEDTAVYYCARGLRLLMDYWGQGTTVTVSS VL: DIVMTQSQKFMSSSVGDRVSITCKASQNVHTSLAWYQQRPGQSPKALIYLASNRHTGVPDRFTGSGSGTDFTLTISNVQSEDLADYFCLQHWNYPLTFGAGTKLELRR",0.844
6,"PD-L1-1.168.15-z6-uIgG1K (antibody, V domains shown) VH: EVQLVQSGAEVKKPGATVKISCKVSGFNIEDTYIYWVQQAPGKGLEWMGWIDPANYNTKYDPRFQDRVTITVDTSTDTAYMELSSLRSEDTAVYYCARGLRLLMDYWGQGTTVTVSS VL: DIQLTQSPSFLSASVGDRVTITCKASQNVHTSLAWYQQKPGKAPKALIYLASNRHTGVPSRFSGSGSGTEFTLTISSLQPEDFATYYCLQHWNYPLTFGQGTKLEIKR",0.998
7,"PD-L1-1.168.15-z16-uIgG1K (antibody, V domains shown) VH: EVQLVQSGAEVKKPGATVKISCKVSGFNIEDTYIYWVQQAPGKGLEWIGWIDPANYNTKYDPRFQDRVTITVDTSTNTAYMELSSLRSEDTAVYYCARGLRLLMDYWGQGTTVTVSS VL: DIQMTQSPSFLSASVGDRVTITCKASQNVHTSLAWYQQKPGKSPKALIYLASNRHTGVPSRFSGSGSGTEFTLTISSLQPEDFATYFCLQHWNYPLTFGQGTKLEIKR",1
8,"PD-L1-1.168.15-z17-uIgG1K (antibody, V domains shown) VH: EVQLVQSGAEVKKPGATVKISCKVSGFNIEDTYIYWVQQAPGKGLEWMGWIDPANYNTKYDPRFQDRVTVTVDTSTNTAYMELSSLRSEDTAVYYCARGLRLLMDYWGQGTTVTVSS VL: DIQMTQSPSFLSASVGDRVTITCKASQNVHTSLAWYQQKPGKSPKALIYLASNRHTGVPSRFSGSGSGTEFTLTISSLQPEDFATYFCLQHWNYPLTFGQGTKLEIKR",1.67
9,"PD-L1-1.168.15-z2-uIgG1K (antibody, V domains shown) VH: EVQLVQSGAEVKKPGATVKISCKVSGFNIEDTYIYWVQQAPGKGLEWMGWIDPANYNTKYDPRFQDRVTITADTSTDTAYMELSSLRSEDTAVYYCARGLRLLMDYWGQGTTVTVSS VL: DIQLTQSPSFLSASVGDRVTITCKASQNVHTSLAWYQQKPGKAPKALIYLASNRHTGVPSRFSGSGSGTEFTLTISSLQPEDFATYYCLQHWNYPLTFGQGTKLEIKR",1.4
10,"PD-L1-1.168.15-z5-uIgG1K (antibody, V domains shown) VH: EVQLVQSGAEVKKPGATVKISCKVSGFNIEDTYIYWVQQAPGKGLEWMGWIDPANYNTKYDPRFQDRVTITADTSTDTAYMELSSLRSEDTAVYYCARGLRLLMDYWGQGTTVTVSS VL: DIQLTQSPSFLSASVGDRVTITCKASQNVHTSLAWYQQKPGKSPKALIYLASNRHTGVPSRFSGSGSGTEFTLTISSLQPEDFATYYCLQHWNYPLTFGQGTKLEIKR",1.24
11,PD-L1-1.168.15-z14-uIgG1K (antibody) chain 1: not shown chain 2: DIQMTQSPSFLSASVGDRVTITCKASQNVHTSLAWYQQKPGKSPKALIYLASNRHTGVPSRFSGSGSGTEFTLTISSLQPEDFATYFCLQHWNYPLTFGQGTKLEIKRTVAAPSVFIFPPSDEQLKSGTASVVCLLNNFYPREAKVQWKVDNALQSGNSQESVTEQDSKDSTYSLSSTLTLSKADYEKHKVYACEVTHQGLSSPVTKSFNRGEC,1.07
12,PD-L1-1.168.15-z10-uIgG1K (antibody) chain 1: not shown chain 2: DIQMTQSPSFLSASVGDRVTITCKASQNVHTSLAWYQQKPGKSPKALIYLASNRHTGVPSRFSGSGSGTEFTLTISSLQPEDFATYYCLQHWNYPLTFGQGTKLEIKRTVAAPSVFIFPPSDEQLKSGTASVVCLLNNFYPREAKVQWKVDNALQSGNSQESVTEQDSKDSTYSLSSTLTLSKADYEKHKVYACEVTHQGLSSPVTKSFNRGEC,0.995
13,PD-L1-1.168.15-z8-uIgG1K (antibody) chain 1: not shown chain 2: DIQLTQSPSFLSASVGDRVTITCKASQNVHTSLAWYQQKPGKSPKALIYLASNRHTGVPSRFSGSGSGTEFTLTISSLQPEDFATYYCLQHWNYPLTFGQGTKLEIKRTVAAPSVFIFPPSDEQLKSGTASVVCLLNNFYPREAKVQWKVDNALQSGNSQESVTEQDSKDSTYSLSSTLTLSKADYEKHKVYACEVTHQGLSSPVTKSFNRGEC,1.13
14,PD-L1-1.168.15-z15-uIgG1K (antibody) chain 1: not shown chain 2: DIQMTQSPSFLSASVGDRVTITCKASQNVHTSLAWYQQKPGKSPKALIYLASNRHTGVPSRFSGSGSGTEFTLTISSLQPEDFATYFCLQHWNYPLTFGQGTKLEIKRTVAAPSVFIFPPSDEQLKSGTASVVCLLNNFYPREAKVQWKVDNALQSGNSQESVTEQDSKDSTYSLSSTLTLSKADYEKHKVYACEVTHQGLSSPVTKSFNRGEC,1.19
15,PD-L1-1.168.15-z9-uIgG1K (antibody) chain 1: not shown chain 2: DIQLTQSPSFLSASVGDRVTITCKASQNVHTSLAWYQQKPGKSPKALIYLASNRHTGVPSRFSGSGSGTEFTLTISSLQPEDFATYFCLQHWNYPLTFGQGTKLEIKRTVAAPSVFIFPPSDEQLKSGTASVVCLLNNFYPREAKVQWKVDNALQSGNSQESVTEQDSKDSTYSLSSTLTLSKADYEKHKVYACEVTHQGLSSPVTKSFNRGEC,0.915
16,PD-L1-1.168.15-z13-uIgG1K (antibody) chain 1: not shown chain 2: DIQLTQSPSFLSASVGDRVTITCKASQNVHTSLAWYQQKPGKSPKALIYLASNRHTGVPSRFSGSGSGTEFTLTISSLQPEDFATYFCLQHWNYPLTFGQGTKLEIKRTVAAPSVFIFPPSDEQLKSGTASVVCLLNNFYPREAKVQWKVDNALQSGNSQESVTEQDSKDSTYSLSSTLTLSKADYEKHKVYACEVTHQGLSSPVTKSFNRGEC,1.04
17,PD-L1-1.168.15-z12-uIgG1K (antibody) chain 1: not shown chain 2: DIQMTQSPSFLSASVGDRVTITCKASQNVHTSLAWYQQKPGKSPKALIYLASNRHTGVPSRFSGSGSGTEFTLTISSLQPEDFATYYCLQHWNYPLTFGQGTKLEIKRTVAAPSVFIFPPSDEQLKSGTASVVCLLNNFYPREAKVQWKVDNALQSGNSQESVTEQDSKDSTYSLSSTLTLSKADYEKHKVYACEVTHQGLSSPVTKSFNRGEC,1.13
18,PD-L1-1.168.15-z7-uIgG1K (antibody) chain 1: not shown chain 2: DIQLTQSPSFLSASVGDRVTITCKASQNVHTSLAWYQQKPGKSPKALIYLASNRHTGVPSRFSGSGSGTEFTLTISSLQPEDFATYYCLQHWNYPLTFGQGTKLEIKRTVAAPSVFIFPPSDEQLKSGTASVVCLLNNFYPREAKVQWKVDNALQSGNSQESVTEQDSKDSTYSLSSTLTLSKADYEKHKVYACEVTHQGLSSPVTKSFNRGEC,1.01
